According to PMC9949256, “Integrated analyses reveal a hinge glycan regulates coronavirus spike tilting and virus infectivity” (Research Square, 2023):

Biological target: the molecule itself
Test: cryo-EM structure; cryoET and subtomogram averaging of spikes in situ on vitrified, chemically unfixed, purified HCoV-NL63 virions; C3 symmetry imposed; crown 6.9 Å, stalk with membrane 11.5 Å; focused classification of RBD and domain 0

B1: human coronavirus NL63 (HCoV-NL63) spike glycoprotein (S) (natural protein)
chain: CNSNANLSMLQLGVPDNSSTIVTGLLPTHWFCANQSTSVYSANGFFYIDVGNHRSAFALHTGYYDANQYYIYVTNEIGLNASVTLKICKFSRNTTFDFLSNASSSFDCIVNLLFTEQLGAPLGITISGETVRLHLYNVTRTFYVPAAYKLTKLSVKCYFNYSCVFSVVNATVTVNVTTHNGRVVNYTVCDDCNGYTDNIFSVQQDGRIPNGFPFNNWFLLTNGSTLVDGVSRLYQPLRLTCLWPVPGLKSSTGFVYFNATGSDVNCNGYQHNSVVDVMRYNLNFSANSLDNLKSGVIVFKTLQYDVLFYCSNSSSGVLDTTIPFGPSSQPYYCFINSTINTTHVSTFVGILPPTVREIVVARTGQFYINGFKYFDLGFIEAVNFNVTTASATDFWTVAFATFVDVLVNVSATNIQNLLYCDSPFEKLQCEHLQFGLQDGFYSANFLDDNVLPETYVALPIYYQHTDINFTATASFGGSCYVCKPHQVNISLNGNTSVCVRTSHFSIRYIYNRVKSGSPGDSSWHIYLKSGTCPFSFSKLNNFQKFKTICFSTVEVPGSCNFPLEATWHYTSYTIVGALYVTWSEGNSITGVPYPVSGIREFSNLVLNNCTKYNIYDYVGTGIIRSSNQSLAGGITYVSNSGNLLGFKNVSTGNIFIVTPCNQPDQVAVYQQSIIGAMTAVNESRYGLQNLLQLPNFYYVSNGGNNCTTAVMTYSNFGICADGSLIPVRPRNSSDNGISAIITANLSIPSNWTTSVQVEYLQITSTPIVVDCATYVCNGNPRCKNLLKQYTSACKTIEDALRLSAHLETNDVSSMLTFDSNAFSLANVTSFGDYNLSSVLPQRNIRSSRIAGRSALEDLLFSKVVTSGLGTVDVDYKSCTKGLSIADLACAQYYNGIMVLPGVADAERMAMYTGSLIGGMVLGGLTSAAAIPFSLALQARLNYVALQTDVLQENQKILAASFNKAINNIVASFSSVNDAITQTAEAIHTVTIALNKIQDVVNQQGSALNHLTSQLRHNFQAISNSIQAIYDRLDSIQADQQVDRLITGRLAALNAFVSQVLNKYTEVRGSRRLAQQKINECVKSQSNRYGFCGNGTHIFSIVNSAPDGLLFLHTVLLPTDYKNVKAWSGICVDGIYGYVLRQPNLVLYSDNGVFRVTSRVMFQPRLPVLSDFVQIYNCNVTFVNISRVELHTVIPDYVDVNKTLQEFAQNLPKYVKPNFDLTPFNLTYLNLSSELKQLEAKTASLFQTTVELQGLIDQINSTYVDLKLLNRFENYIKWPWWVWLIISVVFVVLLSLLVFCCLSTGCCGCCNCLTSSMRGCCDCGSTKLPYYEFEKVHVQ
modifications: N-linked glycans at 39 canonical N-glycosylation sites (36 on the crown; N1242, N1247 and N1277 on the stalk), mostly high-mannose
notes: Spike glycoprotein S of human coronavirus NL63, full-length S in the viral envelope; ectodomain residues 1 to 1297 (crown model 1-1224, stalk 1216-1297); Trimeric spike imaged in situ on intact virions; The atomic model covers only the crown (to residue 1224); The stalk model is predicted (I-TASSER, AlphaFold, CCBuilder) and fitted by MDFF; also called S trimer
  stoichiometry N: 3
